Measured values reported in article PMC2386288, “Kinetics and Ligand-Binding Preferences of Mycobacterium tuberculosis Thymidylate Synthases, ThyA and ThyX” (PLoS ONE, 2008).
Where two headings read alike, the source gives them in different places.

Tests used:
[1] = tested on: O=c1ccn([C@H]2C[C@H](O)[C@@H](COP(=O)(O)O)O2)c(=O)[nH]1; assay: purified protein
[2] = tested on: NC(=O)C1=CN([C@@H]2O[C@H](COP(=O)(O)OP(=O)(O)OC[C@H]3O[C@@H](n4cnc5c(N)ncnc54)[C@H](OP(=O)(O)O)[C@@H]3O)[C@@H](O)[C@H]2O)C=CC1; assay: purified protein; conditions: FAD
[3] = tested on: Nc1nc2c(c(=O)[nH]1)N1CN(c3ccc(C(=O)N[C@@H](CCC(=O)O)C(=O)O)cc3)CC1CN2; assay: purified protein
ThyX = target: T1, ThyX (Mycobacterium tuberculosis, UniProt P9WG57); assay: biochemical
T1 construct: C-terminal His-Tag

ThyA = target: T2, ThyA (Mycobacterium tuberculosis, UniProt P9WFR9); assay: biochemical
T2 construct: N-terminal His-Tag
T2 sequence (P9WFR9 2-266): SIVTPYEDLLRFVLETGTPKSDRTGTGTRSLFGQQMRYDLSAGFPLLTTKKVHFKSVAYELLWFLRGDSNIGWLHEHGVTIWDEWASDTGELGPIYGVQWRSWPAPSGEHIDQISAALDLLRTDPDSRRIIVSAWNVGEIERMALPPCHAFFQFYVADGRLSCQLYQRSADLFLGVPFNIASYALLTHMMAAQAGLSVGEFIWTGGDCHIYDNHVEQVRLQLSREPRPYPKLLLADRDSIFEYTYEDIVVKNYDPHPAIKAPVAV

SEC = target: the molecule itself; assay: SEC

ThyX (Mycobacterium tuberculosis H37Rv)
Km ([1]; FAD): 3 ± 0.7 µM | Km [2]: 47 ± 10 µM | Km ([3]; FAD): 4.0 ± 1 µM

O=c1[nH]c(=O)n([C@H]2C[C@H](O)[C@@H](COP(=O)(O)O)O2)cc1F [FdUMP, 5-Fluoro-2′-deoxyuridine 5′-monophosphate]
Ki (ThyX): 100 ± 10 nM | Ki (ThyA): 2 ± 0.2 nM

ThyA (Mycobacterium tuberculosis H37Rv)
Km ([1]; mTHF): 4 ± 0.7 µM | Km [3]: 70 ± 30 µM

B1: Histidine-tagged M. tuberculosis ThyX (flavin-dependent thymidylate synthase) (enzyme)
chain: MAETAPLRVQLIAKTDFLAPPDVPWTTDADGGPALVEFAGRACYQSWSKPNPKTATNAGYLRHIIDVGHFSVLEHASVSFYITGISRSCTHELIRHRHFSYSQLSQRYVPEKDSRVVVPPGMEDDADLRHILTEAADAARATYSELLAKLEAKFADQPNAILRRKQARQAARAVLPNATETRIVVTGNYRAWRHFIAMRASEHADVEIRRLAIECLRQLAAVAPAVFADFEVTTLADGTEVATSPLATEA
notes: also called FDTS
stoichiometry N (SEC): 4
